# B1: CDK5 regulatory subunit-associated protein 3 (Homo sapiens), Q96JB5 (parent)
# chain: MEDHQHVPIDIQTSKLLDWLVDRRHCSLKWQSLVLTIREKINAAIQDMPESEEIAQLLSGSYIHYFHCLRILDLLKGTEASTKNIFGRYSSQRMKDWQEIIALYEKDNTYLVELSSLLVRNVNYEIPSLKKQIAKCQQLQQEYSRKEEECQAGAAEMREQFYHSCKQYGITGENVRGELLALVKDLPSQLAEIGAAAQQSLGEAIDVYQASVGFVCESPTEQVLPMLRFVQKRGNSTVYEWRTGTEPSVVERPHLEELPEQVAEDAIDWGDFGVEAVSEGTDSGISAEAAGIDWGIFPESDSKDPGGDGIDWGDDAVALQITVLEAGTQAPEGVARGPDALTLLEYTETRNQFLDELMELEIFLAQRAVELSEEADVLSVSQFQLAPAILQGQTKEKMVTMVSVLEDLIGKLTSLQLQHLFMILASPRYVDRVTEFLQQKLKQSQLLALKKELMVQKQQEALEEQAALEPKLDLLLEKTKELQKLIEADISKRYSGRPVNLMGTSL
# Variants of: B1
# Conditions: with ufc1_human UFC1, Q9Y3C8
# Chain of ufc1_human UFC1, Q9Y3C8 (Q9Y3C8 whole entry): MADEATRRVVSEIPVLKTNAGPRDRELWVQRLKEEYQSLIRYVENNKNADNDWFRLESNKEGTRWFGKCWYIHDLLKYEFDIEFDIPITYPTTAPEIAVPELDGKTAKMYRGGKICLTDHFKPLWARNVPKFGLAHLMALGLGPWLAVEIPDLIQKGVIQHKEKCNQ
row,effect of a mutation on the interaction,Variant
1,decreasing interaction strength,I267A;W269A
